Laboratory results published in paper doi:10.1101/2022.01.25.477707 (bioRxiv, 2022).
Changes are numbered by the printed parent chain. In names and notes the source's numbering stands. One block for each binder: values may come before it.

Experiments:
[1] = target: T1, G5_(845-1508)-A951E-TAP (human), Q8TEQ6; assay: co-IP; details: remark: other sources report otherwise
T1 chain: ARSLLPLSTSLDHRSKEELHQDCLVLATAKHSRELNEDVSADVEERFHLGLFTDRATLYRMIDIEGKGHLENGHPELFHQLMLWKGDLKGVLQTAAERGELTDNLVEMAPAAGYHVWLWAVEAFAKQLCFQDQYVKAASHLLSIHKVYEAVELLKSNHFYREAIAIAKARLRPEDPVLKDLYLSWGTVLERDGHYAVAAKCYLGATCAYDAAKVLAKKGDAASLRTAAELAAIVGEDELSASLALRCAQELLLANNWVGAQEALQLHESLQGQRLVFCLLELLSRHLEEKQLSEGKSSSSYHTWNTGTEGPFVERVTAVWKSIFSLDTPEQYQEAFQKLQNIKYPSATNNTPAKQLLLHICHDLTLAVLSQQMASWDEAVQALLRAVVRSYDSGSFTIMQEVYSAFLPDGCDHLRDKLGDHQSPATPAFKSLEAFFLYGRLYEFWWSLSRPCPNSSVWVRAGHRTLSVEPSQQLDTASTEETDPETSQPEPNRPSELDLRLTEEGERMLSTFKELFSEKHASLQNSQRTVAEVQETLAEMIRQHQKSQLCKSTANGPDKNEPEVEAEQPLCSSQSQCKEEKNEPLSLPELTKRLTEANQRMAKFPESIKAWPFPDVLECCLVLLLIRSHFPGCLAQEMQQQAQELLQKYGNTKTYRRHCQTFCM

[2] = target: T2, G5_(845-1508)-R1016C-TAP (human, UniProt Q8TEQ6 845-1508, R1016C); assay: co-IP
T2 sequence (looked up): T1 chain with E107A, R172C

[3] = target: T3, G5_(845-1508)-D1019E-TAP (human, UniProt Q8TEQ6 845-1508, D1019E); assay: co-IP
T3 sequence (looked up): T1 chain with E107A, D175E

[4] = target: the molecule itself; assay: SEC-MALS

fold by which the recruitment of Gemin5 by WT exceeds that by this mutant [1]: 10 fold
intensity of co-IP relative to the WT protein [2]: 58 % relative to the WT protein
intensity of co-IP relative to the WT protein [3]: 62 % relative to the WT protein
B1: Gemin5 endogenous protein (natural protein, human (endogenous in HEK293), UniProt Q8TEQ6 1-1508, looked up)
chain: MGQEPRTLPPSPNWYCARCSDAVPGGLFGFAARTSVFLVRVGPGAGESPGTPPFRVIGELVGHTERVSGFTFSHHPGQYNLCATSSDDGTVKIWDVETKTVVTEHALHQHTISTLHWSPRVKDLIVSGDEKGVVFCYWFNRNDSQHLFIEPRTIFCLTCSPHHEDLVAIGYKDGIVVIIDISKKGEVIHRLRGHDDEIHSIAWCPLPGEDCLSINQEETSEEAEITNGNAVAQAPVTKGCYLATGSKDQTIRIWSCSRGRGVMILKLPFLKRRGGGIDPTVKERLWLTLHWPSNQPTQLVSSCFGGELLQWDLTQSWRRKYTLFSASSEGQNHSRIVFNLCPLQTEDDKQLLLSTSMDRDVKCWDIATLECSWTLPSLGGFAYSLAFSSVDIGSLAIGVGDGMIRVWNTLSIKNNYDVKNFWQGVKSKVTALCWHPTKEGCLAFGTDDGKVGLYDTYSNKPPQISSTYHKKTVYTLAWGPPVPPMSLGGEGDRPSLALYSCGGEGIVLQHNPWKLSGEAFDINKLIRDTNSIKYKLPVHTEISWKADGKIMALGNEDGSIEIFQIPNLKLICTIQQHHKLVNTISWHHEHGSQPELSYLMASGSNNAVIYVHNLKTVIESSPESPVTITEPYRTLSGHTAKITSVAWSPHHDGRLVSASYDGTAQVWDALREEPLCNFRGHRGRLLCVAWSPLDPDCIYSGADDFCVHKWLTSMQDHSRPPQGKKSIELEKKRLSQPKAKPKKKKKPTLRTPVKLESIDGNEEESMKENSGPVENGVSDQEGEEQAREPELPCGLAPAVSREPVICTPVSSGFEKSKVTINNKVILLKKEPPKEKPETLIKKRKARSLLPLSTSLDHRSKEELHQDCLVLATAKHSRELNEDVSADVEERFHLGLFTDRATLYRMIDIEGKGHLENGHPELFHQLMLWKGDLKGVLQTAAERGELTDNLVAMAPAAGYHVWLWAVEAFAKQLCFQDQYVKAASHLLSIHKVYEAVELLKSNHFYREAIAIAKARLRPEDPVLKDLYLSWGTVLERDGHYAVAAKCYLGATCAYDAAKVLAKKGDAASLRTAAELAAIVGEDELSASLALRCAQELLLANNWVGAQEALQLHESLQGQRLVFCLLELLSRHLEEKQLSEGKSSSSYHTWNTGTEGPFVERVTAVWKSIFSLDTPEQYQEAFQKLQNIKYPSATNNTPAKQLLLHICHDLTLAVLSQQMASWDEAVQALLRAVVRSYDSGSFTIMQEVYSAFLPDGCDHLRDKLGDHQSPATPAFKSLEAFFLYGRLYEFWWSLSRPCPNSSVWVRAGHRTLSVEPSQQLDTASTEETDPETSQPEPNRPSELDLRLTEEGERMLSTFKELFSEKHASLQNSQRTVAEVQETLAEMIRQHQKSQLCKSTANGPDKNEPEVEAEQPLCSSQSQCKEEKNEPLSLPELTKRLTEANQRMAKFPESIKAWPFPDVLECCLVLLLIRSHFPGCLAQEMQQQAQELLQKYGNTKTYRRHCQTFCM

B2: Gemin5 TPR-like dimerization domain R1016C (domain or fragment, human, UniProt Q8TEQ6 845-1097, looked up)
chain: ARSLLPLSTSLDHRSKEELHQDCLVLATAKHSRELNEDVSADVEERFHLGLFTDRATLYRMIDIEGKGHLENGHPELFHQLMLWKGDLKGVLQTAAERGELTDNLVAMAPAAGYHVWLWAVEAFAKQLCFQDQYVKAASHLLSIHKVYEAVELLKSNHFYREAIAIAKARLCPEDPVLKDLYLSWGTVLERDGHYAVAAKCYLGATCAYDAAKVLAKKGDAASLRTAAELAAIVGEDELSASLALRCAQELLL
stoichiometry N [4]: 2

B3: Gemin5 TPR-like dimerization domain D1019E (domain or fragment, human, UniProt Q8TEQ6 845-1097, looked up)
chain: B2 chain with C172R, D175E
stoichiometry N [4]: 2
